This is an account of results in PMC4447067.

What all share (details): GMSA: K-glu100 buffer (40 mM HEPES pH 8.0, 10 mM MgCl2, 100 mM K glutamate, 4 mM DTT, 500 ug/ml BSA), 15 min at 37 C, 1 nM DNA, 18-150 nM RNA polymerase …
Data set [1] deals with T1, EsigmaS RNA polymerase holoenzyme (reconstituted) (UniProt P13445+P0A7Z4+P0A8V2+P0A8T7+P0A800). Put plainly: KMnO4 footprinting.
Data set [2] concerns the target T2, Esigma70 RNA polymerase holoenzyme (reconstituted) (UniProt P00579+P0A7Z4+P0A8V2+P0A8T7+P0A800). Kind of data set: KMnO4 footprinting.
In data set [3] the target is T1, EsigmaS RNA polymerase holoenzyme (reconstituted). Kind of data set: EMSA.
Data set [4] has as its target T2, Esigma70 RNA polymerase holoenzyme (reconstituted). Put plainly: EMSA.

With “GATGGCGATAACTTCACTGGTGCGAAATGCGACCGAAGCAACCGCGCCATTACCGTCAATAGTAATCATATGACACCCTTACATTGCGCAAATGAGGGGCGCACGAAATTGCTGCGCGCCCAGTAGTAATCTTTCAATTTTAGCAAATGGCTTTCTTCTGCATTTTCGCTTTTGTGTCCCCCACATCAGCGTAATGAATGTTTTGATCAAACAGAGGGCAAAAAAATAGCCATAAAAAAGTAAAAATGCG (double strand) [ydbK promoter fragment]”, the binding entry in data set [1], in data set [2] and in data set [3] was “binds” each time.

“TATTCAGTCGCTGAAAAGCCGCTACGGCGAAAGTGAAGAGATCCTGTCGCTGCTTAATCTTTATCATAATCTGCTGCGGGAATGGTCGGAGATCTGATGCTTGAACTGCCCGAGTTCGTCCCTGGATTAGCTACACTTAACTGTACAAGTATTGATATGGGGAGGTCGATATGGCATCCGGTTGGGCTAACGATGACGCCGTCAACGAACAGATCAACAGTACAATT (double strand) [ybiI promoter fragment]”: the binding result in data set [1] is “binds”; in data set [2], “binds more weakly”; in data set [3] it was “binds”; in data set [4], “binds more weakly”.
